From US20190151346A1, “COMBINATIONS THERAPIES FOR THE TREATMENT OF CANCER” (INSERM (INSTITUTE NATIONAL DE LA SANTÉ ET DE LA RECHERCHE …, priority 2016, published 2019)

B1: IL-17B: cytokine, product of the human IL-17B gene; ligand of IL-17RB (protein, UniProt Q9UHF5 21-180, looked up)
Interleukin-17B: QPRSPKSKRKGQGRPGPLAPGPHQVPLDLVSRMKPYARMEEYERNIEEMVAQLRNSSELAQRKCEVNLQLWMSNKRSLSPWGYSINHDPSRIPVDLPEARCLCLGCVNPFTMQEDRSMVSVPVFSQVPVRRRLCPPPPRTGPCRQRAVMETIAVGCTCIF
B2: IL-17E: pro-inflammatory cytokine, product of the human IL-17E gene, also named IL-25 (protein, UniProt Q9H293 33-177, looked up)
Interleukin-25: YSHWPSCCPSKGQDTSEELLRWSTVPVPPLEPARPNRHPESCRASEDGPLNSRAISPWRYELDRDLNRLPQDLYHARCLCPHCVSLQTGSHMDPRGNSELLYHNQTVFYRRPCHGEKGTHKGYCLERRLYRVSLACVCVRPRVMG

Legend:
Format in all cases: cell-based
[1] = test system: EGFR; assay: Immunofluorescence microscopy: localization of EGFR; settings: MDA-MB468; 10 ng/ml, 2 hours; FIG. 4A, FIG. 7
Description: (§1) BT20 and MDA-MB468 triple negative (HER2-, ER-, PR-) were obtained from American Type Culture Collection (ATCC N°HTB19, and ATCC N°HTB132, respectively). The LumB, and Her2-, ER-, PR-negative IJG-1731 cell line was previously established at the laboratory as described (Mombelli et al. Sci Rep. 2015 Jul. 8; 5:11874.) BT20 and IJG-1731 cells were grown in complete RPMI-1640 media with L-glutamine, supplemented with 10% fetal calf serum (FCS) and penicillin—streptomycin solution (100 μg/ml each) (Life technology, Saint-Aubain, France). MDA-MB468 cells were grown in a complete DMEM-F12 media with glutamine, 10% FCS and penicillin—streptomycin. All cells were maintained in a humidified 5% CO2 atmosphere at 37° C. All experiments were conducted with cells at confluency and starved for an overnight.
Cells (4.10^3) were grown on Lab-Tek chambers slide in their respective complete culture medium for 24 hours then starved for an overnight. Cells were then stimulated with IL-17E (long/ml), EGF (10 ng/ml) or a combination of both for 2 hours at 37° C., washed, and fixed with 4% paraformaldehyde (PFA)-PBS solution at 4° C. […] Slides were mounted with mounting medium containing Dapi then visualized with a Leica DMRB fluorescence microscope and images analysis was performed with the Archimed Software (Microvision).

[2] = test system: STAT3; assay: Cellular fractionation and Western blotting: STAT3 and pSTAT3 translocation to the nucleus; settings: MDA-MB468 fractions
Description: as §1
(§2) Cells (3×10^5) were seeded in 6-well plates in complete medium for 24 hours then starved for another overnight. Cells were stimulated for 2 hours at 37° C. with IL-17E (10 ng/ml), EGF (long/ml), or a combination of both as indicated. Cells were then washed with PBS and lysed in a lysis buffer (HEPES 10 mM, MgCl2 15 mM KCl 10 mM, DTT 0.5 mM, PMSF 0.2 mM, 1 mM Na3VO4, 10 mM NaF, 0.5% Nonidet P-40). […] Protein concentrations were determined by using Bradford method. […]

[3] = test system: EGFR; assay: Cellular fractionation and Western blotting: EGFR and pY1086EGFR translocation to the nucleus; settings: MDA-MB468 cytoplasmic and nuclear fractions; FIG. 4A
Description: as §1, §2

[4] = test system: Src; assay: Tyrosine phosphorylation by Western blotting: Src phosphorylation in TNBC cell lines
Description: as §1
(§3) Cells (3×10^5) were seeded in 6-well plates in complete medium for 24 hours then starved for another overnight. Cells were then stimulated with IL-17E (10 ng/ml), EGF (10 ng/ml), or a combination of both for 30 min in serum-free medium. Cells were then lysed in 1% Triton X100 buffer and left on ice for 1 hours. Protein samples were then subjected to 8% SDS-PAGE. Western blotting using specific antibodies assessed then the phosphorylation of the various kinases.

[5] = test system: EGFR; assay: Tyrosine phosphorylation by Western blotting: EGFR phosphorylation in TNBC cell lines; settings: IJG-1731, BT-20 and MDA-MB468; 10 ng/ml; FIG. 1
Description: BT20 and MDA-MB468 triple negative (HER2-, ER-, PR-) were obtained from American Type Culture Collection (ATCC N°HTB19, and ATCC N°HTB132, respectively). […] MDA-MB468 cells were grown in a complete DMEM-F12 media with glutamine, 10% FCS and penicillin—streptomycin. All cells were maintained in a humidified 5% CO2 atmosphere at 37° C. All experiments were conducted with cells at confluency and starved for an overnight.
as §3

[6] = test system: STAT3; assay: Tyrosine phosphorylation by Western blotting: STAT3 phosphorylation in TNBC cell lines; settings: 10 ng/ml
Description: as §1, §3

[7] = test system: PYK-2; assay: Tyrosine phosphorylation by Western blotting: PYK-2 phosphorylation in TNBC cell lines; settings: three cell lines; 10 ng/ml; FIG. 1
Description: as §1, §3

Molecule | translocation of EGFR (immunofluorescence) [1] | phosphorylation of STAT3α and β [2] | translocation of non-phosphorylated EGFR form to the nucleus [3] | translocation of phosphorylated EGFR (pY1086EGFR) to the nucleus [3] | phosphorylation of Src at Y416 at suboptimal concentrations ([4]; MDA-MB468, IL-17E 1 ng/ml alone or EGF 0.1-1 ng/ml alone, FIG. 3) | phosphorylation of Src at Y416 ([4]; three cell lines, 10 ng/ml, FIG. 1) | intensity of induced EGFR phosphorylation [5] | phosphorylation of STAT3-α and -β at Y705 ([6]; IJG-1731 and BT20 cell lines, FIGS. 1A and B) | phosphorylation of STAT3-α and -β ([6]; MDA-MB468 cell line) | phosphorylation of PYK2 at Y402 [7]
B1 | induced a translocation from the membrane to cytoplasm with a strong perinuclear reorganization |  |  |  |  |  |  |  |  | 
B2 | induced the translocation of EGFR to the nucleus but to a lower extends compared to EGF | induced the phosphorylation | fairly translocate | failed to induce its significant translocation to the nucleus | failed to induce any significant phosphorylation | induced the phosphorylation | comparable to that induced by EGF | induced considerable phosphorylation | less evident | induced the phosphorylation
